Data reported in publication PMC12658067.

What was measured:
[1] = target: C-tail deletion mutant of T7 gp4A' with 17 C-terminal amino acid residues deleted (gp4A' ΔCt) (bacteriophage T7) (UniProt P03692)
[2] = target: M64L mutant of T7 helicase gp4 (T7 gp4A') (bacteriophage T7) (UniProt P03692)
[3] = target: C-tail deletion mutant of T7 gp4A' with 17 C-terminal amino acid residues deleted (gp4A' ΔCt) (bacteriophage T7) (UniProt P03692); remark: listed apart in the source

Row | Substance | fork regression during stalling under torsion (angular optical trap), ΔCt exo- replisome, mean fork position over a minute [1] [bp] | fork regression during stalling under torsion (angular optical trap), WT replisome, mean fork position over a minute [2] [bp] | fork regression during stalling under torsion (angular optical trap), ΔCt replisome, mean fork position over a minute [3] [bp]
1 | Exonuclease deficient mutant of T7 gp5 DNA polymerase (D5A, E7A) complexed with E. coli thioredoxin (from UniProt P00581 1-704; P0AA25 1-109) | 340 |  | 
2 | Wild-type T7 gp5 DNA polymerase complexed with E. coli thioredoxin (from UniProt P00581 1-704; P0AA25 1-109) |  | 80 | 240
